Source: the supplement of paper PMC10567573

B1: C1orf137 (parent)
chain: RQHHHQSSFPGSLPQETNLTLKVC
B2: RIPK4 (parent)
chain: VSVNAQTLDGRTPLHLAAQRGHYR

Variants of: B1
Test: protein stability index of a GFP-peptide fusion (GPS, HEK-293T) (PSI 1-6); higher = more stable
Conditions: c terminus: a fixed tail appended
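Further: lentivirally expressed fusions sorted by FACS into six bins by GFP to DsRed ratio, PSI derived from sequencing read proportions per bin multiplied by bin number.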

Protein stability index of substitutions, site by site:
S8: F 1.84, G 2.47, K 3.07, A 2.81, L 2.45, E 3.85, D 2.89, C 2.67, I 3.03, H 2.45
R1: T 3.12, M 2.87, H 3.2, A 2.7, N 2.7, L 2.44, E 3.58, F 1.63, S 3.4, W 3.5, I 3.28, D 3.79, V 3.05, Q 3.44, C 1.97, G 3.69, K 2.88, P 2.79, Y 2.07
Q6: E 2.88, I 2.37, D 3.39, C 1.72, P 2.55, T 2.49, F 2.3, N 2.71, G 3.22, H 3.36, A 2.61, Y 2.9, K 3.15, L 2.49, W 2.27, S 3.25, R 4.03, M 2.23, V 2.89
H4: K 3.26, R 1.94, Y 2.89, V 2.82, D 3.56, P 3.19, T 3.36, E 3.15, Q 3.9, A 2.94, F 2.74, G 3.52, N 3.14, M 2.37, I 2.34, W 2.87, C 2.87, S 2.96, L 3.13
Q2: F 3.96, H 2.27, W 2.58, D 3.06, V 2.47, S 2.43, K 2.31, P 2.77, C 2.04, R 3.04, M 2.88, I 2.28, T 3.45, A 2.67, N 2.62, G 3.57, Y 2.63, L 2.4, E 2.59
H3: Y 2.57, S 3.36, C 2.54, N 2.75, A 2.84, F 2.04, I 3.06, G 3.11, R 2.88, K 3.31, T 3.13, M 3.25, L 2.34, Q 3.06, P 2.77, D 2.87, E 3.69, V 3.09
S7: A 2.71, M 2.43, V 2.89, R 3.34, C 2.43, P 3.52, H 2.83, T 3.34, G 3.18, Y 2.54, I 2.77, K 3.11, N 3.68, Q 3.05, W 2.43, D 3.23, L 2.79, F 2.36, E 2.3
H5: R 3.64, I 2.66, W 2.27, D 3.36, A 3.06, E 3.97, V 3.23, T 3.28, M 2.63, P 2.9, F 2.33, N 2.91, G 2.81, C 3.25, Q 2.65, S 2.51, K 2.34, L 2.73, Y 2.85

Variants of: B2
Test: as above
Conditions: c terminus: a fixed tail appended

Protein stability index of substitutions, site by site:
Q19: R 4.04, L 2.52, C 2.97, D 3.12, S 3.08, G 3.53, M 2.88, N 3.41, K 3.95, I 2.59, W 2.12, T 3.58, A 3.44, P 2.67, H 3.27, E 3.18, F 1.94, Y 2.63, V 2.28
L14: W 2.88, Y 3.21
G21: H 3.26, P 3.49, L 2.94, F 2.34, E 3.58, S 2.66, K 3.33, W 2.05, D 2.86, I 2.24, V 2.93, R 3.47, Q 3.35, A 2.77, N 2.88, T 2.88, Y 2.81, C 2.44, M 2.68
Y23: M 4.03, I 3.39, A 3.92, N 4.17, S 3.83, W 3.07, G 4.25, H 3.42, V 4, Q 3.96, T 4.12, R 4.19, D 4.49, K 4.12, E 4.39, C 3.43, F 2.98, L 3.51, P 4.11
H22: C 2.98, P 2.89, K 3.89, F 2.96, M 2.96, Q 3.56, R 4.29, D 3.23, A 3.3, L 2.69, Y 2.47, T 3.57, N 3.48, S 3.29, E 3.27, G 4.53, I 2.83, V 3.79, W 2.23
H15: Y 2.56, S 3.74, A 3.79, M 2.78, W 2.62, L 3.24, T 3.73, F 2.58, K 3.24, N 3.64, E 3.49, C 3.01, Q 4.11, G 3.08, V 3.2, R 3.89, I 2.79, D 3.93, P 3.94
R20: C 2.69, V 2.85, E 3.43, F 2.14, A 3.02, D 3.62, P 2.95, H 2.53, G 2.96, Q 3.12, T 2.85, I 2.58, M 2.29, Y 2.41, K 3, N 2.71, W 2.5, S 2.65, L 2.13
A17: Y 2.54, V 3.35, W 2.45, T 3.45, K 3.41, D 3.33, I 2.45, N 3.38, G 3.51, E 3.22, R 3.11, H 3.27, P 3.67, C 3.15, M 3.31, F 2.26, Q 3.36, S 3.34, L 3.02
R24: K 3.11, D 3.3, F 2.41, Q 2.82, P 3.08, H 2.69, W 2.48, L 2.13, A 2.81, M 2.87, E 2.87, I 2.05, V 2.43, N 2.98, C 2.2, Y 2.66, G 3.1, S 3.01, T 2.99
L16: V 3.5, G 3.45, M 3.34, K 3.88, Q 3.83, R 3.96, A 3.82, D 3.8, I 3.42, W 3.09, S 4.04, T 3.64, P 3.73, Y 3.45, E 4.29, N 3.97, H 3.28, C 3.19, F 3.11
A18: Q 3.29, I 2.75, L 2.64, K 2.58, F 1.89, Y 2.19, V 2.97, G 3.5, S 3.38, E 3.13, D 3.31, W 2.09, M 2.42, C 2.61, H 3.13, T 3.08, P 3.21, N 3.46, R 3.32
